Drawing on US20180155451A1 (published 2018), this text covers He/Con_1a and He/Con_2aR for 27 molecules.

One assay deals with T1, FcγRIa (human, UniProt P12314 16-292).
T1 construct: extracellular domain; also called FcgRI; CD64
The assay can be described thus: SPR; vs GpH7-A5/GpH7-B3/GpL16-k0=100. (In general: Surface plasmon resonance follows binding to a sensor surface in real time, without labels.)

For another assay, the target named is T2, FcγRIIa R (human, UniProt P12318 34-217).
T2 construct: extracellular domain; also called FcgRIIa R type; 2aR
T2 sequence (looked up): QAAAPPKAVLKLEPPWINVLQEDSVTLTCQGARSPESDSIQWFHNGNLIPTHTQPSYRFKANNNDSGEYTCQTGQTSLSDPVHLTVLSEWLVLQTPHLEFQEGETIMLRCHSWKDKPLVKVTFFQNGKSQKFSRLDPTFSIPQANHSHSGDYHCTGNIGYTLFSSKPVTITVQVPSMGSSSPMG
The assay can be described thus: SPR Biacore; vs GpH7-A5/GpH7-B3/GpL16-k0 =100.

T1 sequence (P12314 16-292): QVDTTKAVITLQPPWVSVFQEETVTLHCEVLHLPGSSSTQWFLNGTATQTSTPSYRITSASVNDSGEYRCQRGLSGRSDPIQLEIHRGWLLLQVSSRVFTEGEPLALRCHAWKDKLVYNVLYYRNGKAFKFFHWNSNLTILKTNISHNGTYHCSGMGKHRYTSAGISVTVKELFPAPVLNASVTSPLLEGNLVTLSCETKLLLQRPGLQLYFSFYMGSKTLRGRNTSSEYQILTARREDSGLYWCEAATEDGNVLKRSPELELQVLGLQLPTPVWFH

B1: GpH7-A5/GpH7-B3 variant L328_03V/GpL16-k0 (antibody, human IgG1, kappa)
heavy 1: not shown
heavy 2: not shown
light: DIVMTQSPLSLPVTPGEPASISCQASESLVHSNRNTYLHWYLQKPGQSPQLLIYKVSNRFSGVPDRFSGSGSGTDFTLKISRVEAEDVGVYYCSQNTHVPPTFGQGTKVEIERTVAAPSVFIFPPSDEQLKSGTASVVCLLNNFYPREAKVQWKVDNALQSGNSQESVTEQDSKDSTYSLSSTLTLSKADYEKHKVYACEVTHQGLSSPVTKSFNRGEC
notes: heterodimerized; also called He Ab L328_03V
As to B1, the He/Con_1a in the assay with FcγRIa was 101 % of control.

B2: GpH7-A5/GpH7-B3 variant A330_01G/GpL16-k0 (antibody, human IgG1, kappa)
heavy 1: not shown
heavy 2: not shown
light: B1 light
notes: also called He Ab A330_01G
Consider B2, for which the He/Con_2aR in the assay with FcγRIIa R is 109 % of control.

B3: GpH7-A5/GpH7-B3 variant P271_02A/GpL16-k0 (antibody, human IgG1, kappa)
heavy 1: not shown
heavy 2: not shown
light: B1 light
notes: heterodimerized; also called He Ab P271_02A
Consider B3, for which the He/Con_1a with FcγRIa is 104 % of control.

B4: GpH7-A5/GpH7-B3 variant L234_06M/GpL16-k0 (antibody, human IgG1, kappa)
heavy 1: not shown
heavy 2: not shown
light: B1 light
notes: heterodimerized; also called He Ab L234_06M
Turning to B4, the He/Con_1a with FcγRIa was 104 % of control.

B5: GpH7-A5/GpH7-B3 variant L234_15Y/GpL16-k0 (antibody, human IgG1, kappa)
heavy 1: not shown
heavy 2: not shown
light: B1 light
notes: heterodimerized; also called He Ab L234_15Y; GpH7-A5/GpH7-B3-01-15Y/GpL16-k0
For B5, in the assay with FcγRIa, the He/Con_1a is 100 % of control.

B6: GpH7-A5/GpH7-B3 variant E333_15Y/GpL16-k0 (antibody, human IgG1, kappa)
heavy 1: not shown
heavy 2: not shown
light: B1 light
notes: also called He Ab E333_15Y
Take B6: in the assay with FcγRIIa R, the He/Con_2aR is 101 % of control.

B7: GpH7-A5/GpH7-B3 variant P238_06M/GpL16-k0 (antibody, human IgG1, kappa)
heavy 1: not shown
heavy 2: not shown
light: B1 light
notes: heterodimerized; also called He Ab P238_06M
Turning to B7, in the assay with FcγRIa, the He/Con_1a is 102 % of control.

B8: GpH7-A5/GpH7-B3 variant E333_08L/GpL16-k0 (antibody, human IgG1, kappa)
heavy 1: not shown
heavy 2: not shown
light: B1 light
notes: also called He Ab E333_08L
Take B8: the He/Con_2aR with FcγRIIa R was 103 % of control.

B9: GpH7-A5/GpH7-B3 variant K334_06M/GpL16-k0 (antibody, human IgG1, kappa)
heavy 1: not shown
heavy 2: not shown
light: B1 light
notes: heterodimerized; also called He Ab K334_06M
On to B9, for which the He/Con_1a with FcγRIa is 105 % of control.

B10: GpH7-A5/GpH7-B3 variant L328_10E/GpL16-k0 (antibody, human IgG1, kappa)
heavy 1: not shown
heavy 2: not shown
light: B1 light
notes: heterodimerized; also called He Ab L328_10E
For B10, in the assay with FcγRIa, the He/Con_1a is 101 % of control.

B11: GpH7-A5/GpH7-B3 variant A327_09D/GpL16-k0 (antibody, human IgG1, kappa)
heavy 1: not shown
heavy 2: not shown
light: B1 light
notes: also called He Ab A327_09D
As to B11, the He/Con_2aR in the assay with FcγRIIa R was 124 % of control.

B12: GpH7-A5/GpH7-B3 variant P271_11K/GpL16-k0 (antibody, human IgG1, kappa)
heavy 1: not shown
heavy 2: not shown
light: B1 light
notes: heterodimerized; also called He Ab P271_11K
Regarding B12, the He/Con_1a with FcγRIa is 103 % of control.

B13: GpH7-A5/GpH7-B3 variant A330_12R/GpL16-k0 (antibody, human IgG1, kappa)
heavy 1: not shown
heavy 2: not shown
light: B1 light
notes: also called He Ab A330_12R
B13: the He/Con_2aR with FcγRIIa R was 104 % of control.

B14: GpH7-A5/GpH7-B3 variant P238_08L/GpL16-k0 (antibody, human IgG1, kappa)
heavy 1: not shown
heavy 2: not shown
light: B1 light
notes: heterodimerized; also called He Ab P238_08L
For the molecule B14, the He/Con_1a with FcγRIa was 101 % of control.

B15: GpH7-A5/GpH7-B3 variant E333_09D/GpL16-k0 (antibody, human IgG1, kappa)
heavy 1: not shown
heavy 2: not shown
light: B1 light
notes: also called He Ab E333_09D
Regarding B15, the He/Con_2aR with FcγRIIa R is 103 % of control.

B16: GpH7-A5/GpH7-B3 variant K334_12R/GpL16-k0 (antibody, human IgG1, kappa)
heavy 1: not shown
heavy 2: not shown
light: B1 light
notes: heterodimerized; also called He Ab K334_12R
Take B16: the He/Con_1a with FcγRIa is 104 % of control.

B17: GpH7-A5/GpH7-B3 variant E333_07I/GpL16-k0 (antibody, human IgG1, kappa)
heavy 1: not shown
heavy 2: not shown
light: B1 light
notes: also called He Ab E333_07I
For B17, the He/Con_2aR in the assay with FcγRIIa R is 104 % of control.

B18: GpH7-A5/GpH7-B3 variant A330_11K/GpL16-k0 (antibody, human IgG1, kappa)
heavy 1: not shown
heavy 2: not shown
light: B1 light
notes: also called He Ab A330_11K
As for B18, the He/Con_2aR with FcγRIIa R was 110 % of control.

B19: GpH7-A5/GpH7-B3 variant L328_14T/GpL16-k0 (antibody, human IgG1, kappa)
heavy 1: not shown
heavy 2: not shown
light: B1 light
notes: heterodimerized; also called He Ab L328_14T
Turning to B19, the He/Con_1a with FcγRIa was 100 % of control.

B20: GpH7-A5/GpH7-B3 variant L328_19Q/GpL16-k0 (antibody, human IgG1, kappa)
heavy 1: not shown
heavy 2: not shown
light: B1 light
notes: heterodimerized; also called He Ab L328_19Q
In the case of B20, the He/Con_1a with FcγRIa is 101 % of control.

B21: GpH7-A5/GpH7-B3 variant K326_18N/GpL16-k0 (antibody, human IgG1, kappa)
heavy 1: not shown
heavy 2: not shown
light: B1 light
notes: heterodimerized; also called He Ab K326_18N
In the case of B21, in the assay with FcγRIa, the He/Con_1a was 105 % of control.

B22: GpH7-A5/GpH7-B3 variant P271_12R/GpL16-k0 (antibody, human IgG1, kappa)
heavy 1: not shown
heavy 2: not shown
light: B1 light
notes: heterodimerized; also called He Ab P271_12R
For the molecule B22, the He/Con_1a in the assay with FcγRIa is 102 % of control.

B23: GpH7-A5/GpH7-B3 variant Q295_02A/GpL16-k0 (antibody, human IgG1, kappa)
heavy 1: not shown
heavy 2: not shown
light: B1 light
notes: heterodimerized; also called He Ab Q295_02A
In the case of B23, the He/Con_1a with FcγRIa was 104 % of control.

B24: GpH7-A5/GpH7-B3 variant L328_20W/GpL16-k0 (antibody, human IgG1, kappa)
heavy 1: not shown
heavy 2: not shown
light: B1 light
notes: heterodimerized; also called He Ab L328_20W
For B24, in the assay with FcγRIa, the He/Con_1a is 103 % of control.

B25: GpH7-A5/GpH7-B3 variant G236_14T/GpL16-k0 (antibody, human IgG1, kappa)
heavy 1: not shown
heavy 2: not shown
light: B1 light
notes: also called He Ab G236_14T
Consider B25, for which, in the assay with FcγRIIa R, the He/Con_2aR was 103 % of control.

B26: GpH7-A5/GpH7-B3 variant P238_15Y/GpL16-k0 (antibody, human IgG1, kappa)
heavy 1: not shown
heavy 2: not shown
light: B1 light
notes: heterodimerized; also called He Ab P238_15Y
In the case of B26, the He/Con_1a with FcγRIa was 101 % of control.

B27: GpH7-A5/GpH7-B3 variant L234_07I/GpL16-k0 (antibody, human IgG1, kappa)
heavy 1: not shown
heavy 2: not shown
light: B1 light
notes: heterodimerized; also called He Ab L234_07I
As for B27, in the assay with FcγRIa, the He/Con_1a was 103 % of control.
